Assay results: the supplement of paper PMC7877785
± gives the uncertainty stated by the source.

Experiment: self-splicing fitness, log relative to wild type (ln ratio); higher = more splicing; Tetrahymena group I intron in knt gene, E. coli kanamycin selection, DiMSum; sequences stand for … in CUCUCU…GGAGGGAAAAGUUAUCAGGCAUGCACCUGGUAGCUAGUCUUUAAACCAAUAGAUUGCAUCGGUUUAAAAGGCAAGACCGUCAAAUUGCGGGAAAGGGGUCAACAGCCGUUCAGUACCAAGUCUCAGGGGAAACUUUGAGAUGGCCUUGCAAAGGGUAUGGUAAUAAGCUGACGGACAUGGUCCUAACCACGCAGCCAAGUCCUAAGUCAACAGAUCUUCUGUUGAUAUGGAUGCAGUUCACAGACUAAAUGUCGGUCGGGGAAGAUGUAUUCUUCUCAUAAGAUAUAGUCGGACCUCUCCUUAAUGGGAGCUAGCGGAUGAAGUGAUGCAACACUGGAGCCGCUGGGAACUAAUUUGUAUGCGAAAGUAUAUUGAUUAGUUUUGGAGUACUCGUGGUCG
Summary of the method: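 Library with all eight P1ex-region intron nucleotides randomised, intron inside the knt kanamycin-resistance gene on pET-22b(+), in E. coli BL21(DE3). Cells grew overnight at 37°C or 30°C on LB agar with or without 25 μg/mL kanamycin (plus 100 μg/mL carbenicillin, 50 μM IPTG, 0.2% rhamnose), in six replicate transformations. Pooled colonies were amplicon-sequenced on Illumina HiSeq 2500. DiMSum fitness is the error-weighted combination of wild-type-normalised replicate fold changes, kanamycin versus none.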

Row | Sequence | self-splicing fitness (ln) (30 °C) | self-splicing fitness (ln) (37 °C)
1 | CGAAAGCAAUAUUACGUAAA | -2.45 ± 0.23 | -1.92 ± 0.31
2 | CGAAAGCAAUAUUACGUAUC | -3.76 ± 0.2 | -3.21 ± 0.23
3 | CGAAAGCAAUAUUACGUCGG | -0.496 ± 0.06 | -0.0301 ± 0.071
4 | CGAAAGCAAUAUUACGUCUA | -0.692 ± 0.25 | -0.962 ± 0.17
5 | CGAAAGCAAUAUUACGUGGG | -2.3 ± 0.098 | -2.46 ± 0.14
6 | CGAAAGCAAUAUUACGUGUC | -3.94 ± 0.34 | -2.71 ± 0.22
7 | CGACAGCAAUAUUACGAAAA | -3.75 ± 0.26 | -1.93 ± 0.2
8 | CGACAGCAAUAUUACGAACA | -2.16 ± 0.14 | -0.404 ± 0.11
9 | CGACAGCAAUAUUACGACGA | -1.01 ± 0.12 | 0.0299 ± 0.14
10 | CGACAGCAAUAUUACGACGC | -2.21 ± 0.11 | -0.587 ± 0.12
11 | CGACAGCAAUAUUACGAGAU | -3.16 ± 0.23 | -2.01 ± 0.21
12 | CGACAGCAAUAUUACGAGGU | -3.14 ± 0.33 | -1.73 ± 0.2
13 | CGACAGCAAUAUUACGAUAG | -0.383 ± 0.06 | -0.728 ± 0.07
14 | CGACAGCAAUAUUACGAUGA | -0.751 ± 0.075 | -0.41 ± 0.075
15 | CGACAGCAAUAUUACGAUGU | -2.74 ± 0.15 | -2.59 ± 0.18
16 | CGACAGCAAUAUUACGCCCC | -1.19 ± 0.16 | 0.564 ± 0.24
17 | CGACAGCAAUAUUACGCGAC | – | -2.98 ± 0.26
18 | CGACAGCAAUAUUACGGAAU | -2.5 ± 0.24 | -2.54 ± 0.26
19 | CGACAGCAAUAUUACGGAUA | -2.09 ± 0.14 | -1.91 ± 0.15
20 | CGACAGCAAUAUUACGGAUG | -0.977 ± 0.051 | -0.0449 ± 0.059

Row | Sequence | self-splicing fitness (ln) (30 °C) | self-splicing fitness (ln) (37 °C)
21 | CGACAGCAAUAUUACGGAUU | -3.77 ± 0.17 | -1.73 ± 0.099
22 | CGACAGCAAUAUUACGGCCC | -0.607 ± 0.19 | -0.549 ± 0.24
23 | CGACAGCAAUAUUACGGCUA | -2.5 ± 0.2 | -1.39 ± 0.14
24 | CGACAGCAAUAUUACGGGAU | -3.98 ± 0.18 | -2.52 ± 0.19
25 | CGACAGCAAUAUUACGGGCC | -2.97 ± 0.17 | -2.43 ± 0.23
26 | CGACAGCAAUAUUACGUCUU | -0.458 ± 0.066 | -0.212 ± 0.073
27 | CGACAGCAAUAUUACGUGGC | -3.68 ± 0.28 | -3.29 ± 0.26
28 | CGACAGCAAUAUUACGUUUC | -3.98 ± 0.24 | -2.23 ± 0.15
29 | CGAGAGCAAUAUUACGAAAG | -3.64 ± 0.4 | -1.55 ± 0.31
30 | CGAGAGCAAUAUUACGACUG | -1.29 ± 0.15 | -0.27 ± 0.19
31 | CGAGAGCAAUAUUACGAUAA | -4.29 ± 0.46 | -2.37 ± 0.45
32 | CGAGAGCAAUAUUACGAUUU | -1.8 ± 0.33 | -2.17 ± 0.37
33 | CGAGAGCAAUAUUACGCCAA | -1.49 ± 0.2 | -1.99 ± 0.38
34 | CGAGAGCAAUAUUACGCCGG | -2.74 ± 0.41 | -1.27 ± 0.45
35 | CGAGAGCAAUAUUACGCGCU | -2.04 ± 0.38 | –
36 | CGAGAGCAAUAUUACGCGGC | – | -1.9 ± 0.41
37 | CGAGAGCAAUAUUACGCUUA | -2.49 ± 0.23 | -2.13 ± 0.46
38 | CGAGAGCAAUAUUACGCUUU | – | -2.33 ± 0.39
39 | CGAGAGCAAUAUUACGGAGU | -4.55 ± 0.42 | -1.6 ± 0.2
